Measured values taken from the nanobody polyreactivity screen of Harvey et al. (2022).

Assay: yeast display, Sf9 membrane polyspecificity reagent, FACS + sequencing; frameworks hold sequencing errors
Method in brief: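 Nanobodies from a synthetic yeast display library (Saccharomyces cerevisiae BJ5465), induced 36–48 hours with galactose, were stained 1 hour at 4 °C with 10% biotinylated, detergent-solubilized Sf9 membrane reagent, enriched on streptavidin microbeads, then FACS-sorted. Anti-HA (expression) and streptavidin (reagent binding) fluorescence set low and high (top ~1%) gates. Polyreactivity labels come from the gate of origin. Genes were colony-PCR amplified, MiSeq 2 × 250 sequenced and filtered by CDR length.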
For “QVQLVESGGGLVQAGGSLRLSCAPSGSTFYVNTMGWYRQAPGKERELVAAITATGASTYYADSVKGRFTISRDNAKNTVYVQMNSLKPEDTAVYYCNVRLRIRSGYWGQGTQVTVSS”, the “polyreactivity (PSR sort gate)” value was “high polyreactivity”. For “QVQLVESGGGLVQAGGSLRLSCAPSGYIFQAYVMGWYRPAPGKERELVAAITSGGGTYYADSVKGRFTISRDNAKNTVYLQMISLKPEDTAVYYCAARYTQRPRRNYWGQGSQVTVSS”, the “polyreactivity (PSR sort gate)” value was “high polyreactivity”. In the case of “QVQLVESGGGLVQAGGSLRLSCAPSGYNFSKYAMGWYRQAPGKERELVAAITSGGGSTYYADSVKGRFTISRDNAKNTVYLQMNSLKPEDTAVYYCNAACRRIVGQTYDYWGQGTQVTVSS”, the “polyreactivity (PSR sort gate)” value is reported as “high polyreactivity”. For “QVQLVESGGGLVQAGGSLRLSCAPSGYTFWLYAMGWYRQAPGKERELVAAITWNGGSTYYADSVKGRFTISRDIAKNTVYLQMISLNPEYTAVYYCAAEAIIYLQWFDYWGQGTQVTVSS”, the “polyreactivity (PSR sort gate)” value was “low polyreactivity”. In the case of “QVQLVESGGGLVQAGGSLRLSCAPSRSTLNYYAMGWYRQAPGKERELVAAITWSGGSTSYADSVKGRFTISRDNAKNTVYLQMNSLKPEDTAVYYCATDFPTVQLYDTDWLSSDMGYWGQGTQVTVSS”, the “polyreactivity (PSR sort gate)” value is reported as “low polyreactivity”. For “QVQLVESGGGLVQAGGSLRLSCAPSVRTFQYYAMGWYRPAPGKERELVAAINQGGGRTYYADSVKGRFTISRDTAKNTVYLQMNSLKPEDTAVYYCAADGLSKFDYWGQGTQVTVSS”, the “polyreactivity (PSR sort gate)” value was “low polyreactivity”. With “QVQLVESGGGLVQAGGSLRLSCAPTGFTIGWYAMGWYRQAPGKERELVATISWSGSSTYYADSVKGRFTISRDNAKNTVYLQMNSLKPEDTAVYYCNAVYGRFVVLRYDYWAQGTQVTVSS” the “polyreactivity (PSR sort gate)” value was “high polyreactivity”. For “QVQLVESGGGLVQAGGSLRLSCASSGFIFAYNAMGWYRQAPGKERELVAAISRSGGSTRYADSVKGRFTISRDNAKNTVYLQMNSLIPEDTAVYYCAADWSDYWDWSWYDYWGQGTQVTVSS”, the “polyreactivity (PSR sort gate)” value was “high polyreactivity”. In the case of “QVQLVESGGGLVQAGGSLRLSCASSGFIFKRYAMGWYRQAPGKERELVAAITSGGSTHYADSVKGRFTISRDNAKNTVYLQMNSLKPEDTAVYYCATRRYKWGVRYDYWGQGTQVTVSS”, the “polyreactivity (PSR sort gate)” value is reported as “high polyreactivity”. With “QVQLVESGGGLVQAGGSLRLSCASSGFTFGVYAMGWYRTAPGKERELVAGITRGGSTNYADSVKGRFTISRDNAKNTVYLQMNSLKPEDTAVYYCAKVSYGYLRSWGRYTRGDYWGQGTQVTVSS” the “polyreactivity (PSR sort gate)” value was “high polyreactivity”. For “QVQLVESGGGLVQAGGSLRLSCASSGFTFPFYAMGWYRQAPGKESELVAAISWSGGSTYYADSVKGRFTISRDNAKNTVYLQMNSLKPEDTAVYYCAAEYISSPLGYDYWGQGTQVTVSS”, the “polyreactivity (PSR sort gate)” value was “high polyreactivity”. In the case of “QVQLVESGGGLVQAGGSLRLSCASSGFTFSLYARGWYSQAPGKEMELVAAISQRGGSTYYADSVKGRFTISRDNAKNTDYLQMNSLKPEDTAVYYCNDYAQVSYGTYDYWGQGTQVTVSS”, the “polyreactivity (PSR sort gate)” value is reported as “high polyreactivity”. With “QVQLVESGGGLVQAGGSLRLSCASSGGISYYYYAMGWYRQAPGKERELVAAISSDDDTYYADSVKGRFTISRDNAKNTVYLQMNSLKPEDTAVYYCAAEYDVVGPSIYGYLFYYWGQGTQVTVSS” the “polyreactivity (PSR sort gate)” value was “high polyreactivity”. For “QVQLVESGGGLVQAGGSLRLSCASSGGTFGSYAMGWYRHAPGKERELVAAIRSGDRTYYADSVKGRFTISRDNAKNTVYLQMNSLKPEDTAVYYCAAFYHHYYRYDYWGQGTQVTVSS”, the “polyreactivity (PSR sort gate)” value was “low polyreactivity”. In the case of “QVQLVESGGGLVQAGGSLRLSCASSGGTFSTYAMGWYRQAPGKERELVAAISSTGGSTYYADSVKGRFTISGDNAKNTVYLQMNSLKPEDTAVYYCAAYYSRGWLLYWDEMYFWGQGTQVTVSS”, the “polyreactivity (PSR sort gate)” value is reported as “high polyreactivity”. With “QVQLVESGGGLVQAGGSLRLSCASSGITFGRNTMGWYRQAPGKERELVAAIDSGGNTYADSVKGRFTISRDNAKNTVYLQMNSLKPEDTAVYYCDVDGGEFSSYGYWGQGTQVTVSS” the “polyreactivity (PSR sort gate)” value was “low polyreactivity”. For “QVQLVESGGGLVQAGGSLRLSCASSGITFGVYAMGWYRQAPGKERELVAAISRRGAYTYYADSVKGRFTISRDNGKNTVYLQMNSLKPEDTAVYYCAAYLARRQYDYWGQGTQVTVSS”, the “polyreactivity (PSR sort gate)” value was “high polyreactivity”. With “QVQLVESGGGLVQAGGSLRLSCASSGITFRVYAMGWYRQAPGKERELVAGISRGGRTSYADSVKGRFTISRDNAKNTVYLQMNSLKPEDTAVYYCAARQYRHRVKYYYWGQGTQVTVSS” the “polyreactivity (PSR sort gate)” value was “high polyreactivity”. In the case of “QVQLVESGGGLVQAGGSLRLSCASSGITFYVYAMGWYRQAPGKERELVASISWNGGRTYYADSVKGRFTISRDNAKNTVYLQMNSLKPEDTAVYYCAARAYSYWSGLDYWGQGTQVTVSS”, the “polyreactivity (PSR sort gate)” value is reported as “high polyreactivity”. In the case of “QVQLVESGGGLVQAGGSLRLSCASSGLIFQYYVKGWYRQAPGKERELVAAISARGGGTYYADSVKGRFTISRDNAKNTVYLQMISLKPEDTAVYYCAADPVYAGPGYDYWGQGTQVTVSS”, the “polyreactivity (PSR sort gate)” value is reported as “high polyreactivity”. In the case of “QVQLVESGGGLVQAGGSLRLSCASSGLTFRNYAMGGYRPAPGKERELVAAITVSGGSTYYADSVKGRFTISRDNAKNTVYLQMNSLKPEDTAVYYCAARVIHTTYSRNYYYWGQGTQVTVSS”, the “polyreactivity (PSR sort gate)” value is reported as “high polyreactivity”. For “QVQLVESGGGLVQAGGSLRLSCASSGLTFYGNAMVWYRPAPGKERELVAAISSSGGTTYYADSVKGRFTISRDNAKNTVYLQMTSLKPEDTAVYYCAARPSGGYESTRTRDYWGQGTQVTVSS”, the “polyreactivity (PSR sort gate)” value was “low polyreactivity”. With “QVQLVESGGGLVQAGGSLRLSCASSGNIFRKYAMAWYRQAPGKERELVAITSGTNTYYADSVKGRFTISRDNAKNTVYVQMNSLKPEDSAVYYCNKSGFRSSHKYDYWGQGTQVTVSS” the “polyreactivity (PSR sort gate)” value was “low polyreactivity”. For “QVQLVESGGGLVQAGGSLRLSCASSGNTFVDYAMGWFRQAPGKETELVAAISDGGSTNYADSVKGRFTISRDNAKNTVDLQMNSLKPEDTEVYYCAKDELYIPGVWPYYEYDYWGQGTQVTVSS”, the “polyreactivity (PSR sort gate)” value was “low polyreactivity”. For “QVQLVESGGGLVQAGGSLRLSCASSGRIFKKYAMGWYIQAPGKERELVATISSGGSTYYADSVKGRFTISRDNAKNTVYLQMNSLKREDTAGSYCARREYVRRDYFVTTYDYWGQGTQVTVSS”, the “polyreactivity (PSR sort gate)” value was “low polyreactivity”. For “QVQLVESGGGLVQAGGSLRLSCASSGRIFKYNAMGWYRQAPGKERELVAAISSSGARTYYADSVKGRFTISRDNAKNTVYLQMNSLKPEDTAVDYCAAPFTSNRSIRPYGYWGQGTQVTVSS”, the “polyreactivity (PSR sort gate)” value was “high polyreactivity”. With “QVQLVESGGGLVQAGGSLRLSCASSGRIFPYYAMGRYRQAPGKERDLVAAITSVGSTNYADSVKGRFTISRDNAKNTVYLQINSLKPEDTAVYYCAAESTEGTSGDYDYWAQGTQVTVSS” the “polyreactivity (PSR sort gate)” value was “low polyreactivity”. In the case of “QVQLVESGGGLVQAGGSLRLSCASSGRIFQYYVKGWYRQAPGKERELVAAITSGGGTKYADSVKGRFTISRDNENNTVYLQMNSLKPEDTAVYYCAAAWFDQYSRYDYWGQGTQVTVSS”, the “polyreactivity (PSR sort gate)” value is reported as “low polyreactivity”. With “QVQLVESGGGLVQAGGSLRLSCASSGRIFVFNAMGWYRPAPGKERELVAAINWSGGTTYYADSVKGRFTISRDNAKNTVYLQMNSVNPEDTAVYYCNAYLNRRMGYWGQGTQVTVSS” the “polyreactivity (PSR sort gate)” value was “high polyreactivity”. For “QVQLVESGGGLVQAGGSLRLSCASSGRIFYGYAMVWYRQAPGKERELVAAIRWYGGNTYYADSVKGRFTISRDNAKNTVYLQMNSLKPEDTAVYYCAARAYYARFVMGYWGQGTQVSVSS”, the “polyreactivity (PSR sort gate)” value was “high polyreactivity”. With “QVQLVESGGGLVQAGGSLRLSCASSGRTFGLYDMGWYRQAPGKERELVAGITRRGGRTYYADSVKGRFTISRDNAKNPVELLMHCRKPEDTAVYYCNKVVTRWNQRWRYSEGNYWGQGTQVTVSS” the “polyreactivity (PSR sort gate)” value was “high polyreactivity”. For “QVQLVESGGGLVQAGGSLRLSCASSGRTFPAYAMGWYRPAPGKERELVAAISSSGSRTYYAASVKGRFTISRDNAKNTVYLQMNRLIPEDTAVYYCAARGGRRQKVNRDDYWGQVTQVTVSS”, the “polyreactivity (PSR sort gate)” value was “high polyreactivity”.
